This is an account of results in the nanobody polyreactivity screen of Harvey et al. (2022).

The nature of this series: yeast display, Sf9 membrane polyspecificity reagent, FACS + sequencing; frameworks hold sequencing errors. In a few lines: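 Using colony PCR, genes from sorted yeast display clones were amplified, then sequenced on MiSeq at 2 × 250 and filtered by CDR length. The clones had been stained with 10% biotinylated, detergent-solubilized Sf9 membrane reagent for 1 hour at 4 °C and sorted by FACS into low and high (top ~1%) gates on anti-HA and streptavidin fluorescence. Polyreactivity labels come from the gate of origin.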
Turning to “QVQLVDSRGGLVQAGRSLRLSCAASGIIFFAYAMGWYRQAPGKERELVAAISSSGGRTYYADSVKGRFTISRDKAKNTVYLQMNSLKPEDTAVYYCNARWHGSFDYWGQGTQVTVSS”, the “polyreactivity (PSR sort gate)” value is listed as “low polyreactivity”.

Regarding “QVQLVESGGGLVQAGGSLRLSCAASGSIFGFNAMGWYRQAPGKERELVASISSSGDSTYYADSVKGRFTISRDNAKNTVYLLMNSLKPEDTAVYYCATEGRTDYNREMEYWGQGTQVTVSS”, the “polyreactivity (PSR sort gate)” value was “low polyreactivity”.

As to “QVQLVESGGGLVQAGGSLRLSCAASGSIIPLYAMGWYRQPPGKERELVAAITSNGGRTYYADSVKGRFTISRDNAKNTVYLQMNSLKPEDTAVYYCNKYLLDYRRGRSDYWGQGTQVTVSS”, the “polyreactivity (PSR sort gate)” value is on record as “low polyreactivity”.

Take “QVQLVESGRGLVHAGGSLRLSCAASGSIFSPYAMGWYRPAPGKEREFVASITFNGGSTYYADSVKGRFTISRDNAKNTVYLQMTSLKPEDTAVYYCAATYWYDTYWLMDYWGQGTQVTVSS”: the “polyreactivity (PSR sort gate)” value is reported as “high polyreactivity”.

For “QVQLEESGGGLVQAGGSLRLSCAASGSIFSTYAMGWYRQAPGKERELVSAINSGDSTSYADSVKGRFTISRDNAKNTVYLQRNSLKPEDTAVYYCAAKTGGYWYLRRTGRYESWGQGTQVTVSS”, the “polyreactivity (PSR sort gate)” value is given as “low polyreactivity”.

Regarding “QVQLVESGGGLVQGGGSLRLSCAASGSIFPHNAMGWSRQAPGKERELVASITSRGGITYYADSVKGRFTISRDNAKNPLNLQMNSLKPEDTAVYYCAADLYIYPYDYWGQGTQVTVSS”, the “polyreactivity (PSR sort gate)” value is “low polyreactivity”.

In the case of “QVQLVESGGGLVQAGGSLRLSCAASGFTFYYNAMGWYRQAPGKERELVASIRSGGSTKYADSVKGRFTISRDNAKNTVYLQMNSLKPEDTAVYYCAKERYHISFFYQMVYWGQGTQVTVSS”, the “polyreactivity (PSR sort gate)” value is given as “low polyreactivity”.

In the case of “QVQLVESGGGLVQAGGSLRLSCAASGRTFAGNAMGWYRQAPGKERELVASISSSAGRTYYADSVKGRFTISRDNAKNTVYLQMNSLKPEDTAVDYCAARGGYVSTWTRFSKYNYWGQGTQVTVSS”, the “polyreactivity (PSR sort gate)” value is recorded as “high polyreactivity”.

As to “QVQLVESGGGLVQAGGSLRLSCAASGITFADNAMGWYRQAPGKERELVAANSWSGDRTFYADSVKGRFTISRDNAKNTVYLQMNSLKPEDTAVYYCARDSLQVFYPYASDDYWGQGTQVTVSS”, the “polyreactivity (PSR sort gate)” value is reported as “low polyreactivity”.

Take “QVQLVESWGGLVQAGGSLRLICAASRGTFRVYAMGWYRQAPVKERELVAAITWRGGRTYYADSVKGRFTISRDNAKNTVYLQMNSLKPEDTAVYYCAADRYGDLYDYWGQGTQVTVSS”: the “polyreactivity (PSR sort gate)” value is “high polyreactivity”.

For the sequence “QVQLVESGGGLVQAGGSLRLICAASGGTFYPYTMGGYRQAPGKERELVAAISRRSGRTYYADSVKGRFTISRDNAKNTVYLQMNSLKPEDTAVYYCNADGYTRAFDYWGQGTQVTVSS”, the “polyreactivity (PSR sort gate)” value is listed as “high polyreactivity”.

For the sequence “QVQLVESGGGLVQAGGSLRLSCAASGSIFSVYAMGWYSQAPGKEREVVAASTSSGGSTYYADSVKGRFTISRDNAKNTVHFQMNSLKPEDTAVYYCAADKYVRRLSWYRYGYWGQGTQVTVSS”, the “polyreactivity (PSR sort gate)” value was “high polyreactivity”.

In the case of “QVQLVESGGGLVQAGGSLRLSCAASGSTFLYYAMGWYRQAPGKEREFVAAISKGSGRTYYADSVKGRFTISRDNAKNTVYLQLNSLKPEDTAVYYCAAAKWRGYPYQSDYWGQGTQVTVSS”, the “polyreactivity (PSR sort gate)” value is on record as “high polyreactivity”.

In the case of “QVQLVESGGGLVQAGGSLRLSCAASGRTFRLNAMGWYRQAPGKERELVAAITRGGRTNYADSVKGRFTISRDNAKNTVYLQMNSLKPEDTAVYYCAARYVERHTDYYYWGQGTQVTVSS”, the “polyreactivity (PSR sort gate)” value is “low polyreactivity”.

As to “QVQLVESGGGLVQAGGSLRFSCAPSGRILYKYAMGCYRQAPGKERELVAAISWRGTTTYYADSVKGRFTISRDNAKNTVYLQMNSLKPEDTAVYYCNARVRVRLGRNWSSYYYWGQGTQVTVSS”, the “polyreactivity (PSR sort gate)” value was “high polyreactivity”.

Regarding “QDQLVESGGGLVQAGGSLRLSCAASGFIFNKNAMGWYRQAPGKERELVAAITFGGGTTYYADSVKGRFTISRDNAKNTVYLQMNSLKPEDTAVYYCAKRYWRHPVFYLYDYWGQGTQVTVSS”, the “polyreactivity (PSR sort gate)” value is listed as “high polyreactivity”.

Turning to “QVQLVESGGGLVQAGGSLRLSCAASGLTFDRYVMGWYRQAPGKERELVAGISTGGSSTYYADSVKGRFTISRDNAKNTVYLQMNSLKPEDTAVYYCAAKLSYWSRHNYWGQGTQVTVSS”, the “polyreactivity (PSR sort gate)” value is on record as “high polyreactivity”.

With “QVQLVESGGGLVQAGGILRLSCAASGYTFYFYAMGWYRQAPGKERELVAAITGGGTTSYADSVKGRFTISRDNAKNTVYLQMNSLKPEDTAVYYCNVLFADKSDYWGQGTQVTVSS”, the “polyreactivity (PSR sort gate)” value is reported as “low polyreactivity”.

“QVQLVESGGGLVQAGGSLRLSCAASGRTFWDYGMGWYRQAPGKERELVPTISGNGGDTYYADSVKGRFTISRDNAKNTVYLQMNSLKPEDTAVYFCAADYRFYRTDRHYDYWGQGTQVTVSS”: the “polyreactivity (PSR sort gate)” value is on record as “low polyreactivity”.

For “QVQLVESGGGLVQAGGSLRLSCAASGSIFRGNAMGCYRQAPWKARELVAGINRAGSTKYADSVKGRFTISRDNAKNTVYVQMISLKQEDTEVYYCAAVRYERGLWSDYWGQGTQVTVSS”, the “polyreactivity (PSR sort gate)” value is listed as “high polyreactivity”.

Consider “QVQLVESGGGLVQAGGSLRLSSAASGGTFTKNAMGWYRQAPGKERELVAAISWRGTSTYYADSVKGRFSISRDNAKNTVYLQMNSLKPDDTAVYFCLPWVGYGRYKPGYKYDYWGQGTQVTVSS”, for which the “polyreactivity (PSR sort gate)” value is reported as “high polyreactivity”.

As to “QVQLVESGGGLVQAGGSLRLSFAASGSIFPSYAMVWYRQAPGKERELVARISSGDDSTYYADSVKGRFTISRDNAKNTVYLQMNSLKPEDNAVYYCAADYPDVVYLEYDYWGQGTQVTVSS”, the “polyreactivity (PSR sort gate)” value is “low polyreactivity”.

In the case of “QVQLVESGGGLVQAGGSLRLSCAASGRIFGYYAMGWSRPAPGKERELVATITFGGVSTYYADSVKGRFTISRDNAKNNVYLQMNSLKPEDTGVYYCAADSGYLGIYGDEYSWGQGTQVTVSS”, the “polyreactivity (PSR sort gate)” value was “low polyreactivity”.

Regarding “QVQLVESGGGLVQAGGSLRLSCAASGFTFPSYAMAWYRQDPGKEREFVAGITKGGGNTYYADAVKGRFTISRDNAKNTVYLQKNSLKQEDTAVYYCSADRSSFYWSHGTVYGYDYWGQGTQVTVSS”, the “polyreactivity (PSR sort gate)” value is “low polyreactivity”.

As for “QVQLVESGGGLVQAGGSLRLICAASGRIFLGYAMGWYRKAPGKERELVAAITSSSGITYYADSVKGRFTISRDNAKNSVYLQMNSLKPEDTAVYYCAARASSGRRTKRYNYWGQGTKVTVSS”, the “polyreactivity (PSR sort gate)” value was “low polyreactivity”.

Turning to “QVQLVESGGGLVQAGGSLRLSCAASGSTFVNYGMGWYRQAPGKERELVAAITQSGGSTYYADSVKGRFTISRDNAKNTVYLQMNSLKPEDTAVYYCAAEVVRQWHGIGYDYWGQGTQVTVSS”, the “polyreactivity (PSR sort gate)” value is given as “low polyreactivity”.

As to “QVQLVESGGGLVQAGGSLRLSCAASGIFGWYAMGWYRQAPGKEREFVATINWSGGRTYYADSVKGRFTISRDNAKNTVYLQMNSLKPEDTAVYYCAAENYASEYDYWGQGTQVTVSS”, the “polyreactivity (PSR sort gate)” value was “low polyreactivity”.

For the sequence “QVQLIESGGGLVQAGGSLRLSCAASGFTFYYNTMGWYRQAPGKERELVAAITRSVGSTYYADSVKGRFTISRDNAKNTVYLQMNSLKPEDTAVYYCAARRLGYYRKVKELDYWGQGTQVTVSS”, the “polyreactivity (PSR sort gate)” value is “high polyreactivity”.

For “QVQLVESGGGLVQAGGSLRLSCAASGSTFGYYAMGWYRQAPGKEREFVAAITYGDGNTYYADSVKGRFTISRDNAKNTVYLQMNSLKPEDTAVYYCAKYYWAPTGAHGGYGYWGQGTQVTVSS”, the “polyreactivity (PSR sort gate)” value is “low polyreactivity”.

Turning to “QVQLVESGGGLVQAGGSLRLSCAASGIIFAANAMGWYRQAPGKERELVAAISWSGTSTYYADSVKGRFTISRDNAKNTVYLQMNSLNPEDTAVYYCAVDYYLWSGYSYLYEFEYWGQGTQVTVSS”, the “polyreactivity (PSR sort gate)” value is listed as “high polyreactivity”.

For the sequence “QVQLVESGGGLVQAGGSLRLSCAASGFIFSSNAMGWYRPAPGKERELVARITSSDGSTYYADSVKGRFTISRDNAKNTVYLQMNSLKPEDTAVYYCAKGRDATHYEYYLYSMDYWGQGTQVTVSS”, the “polyreactivity (PSR sort gate)” value is on record as “low polyreactivity”.

“QVQLLESGGGLVQAGGSLRLTCAASGSIFVIYAMGWYRQAPGKVRELVAAIDSSDGSTYYADSVKGRFTISRDNAKNTVYLQMNSLKPEDTAVYYCAARRLYWGQGTQVTVSS”: the “polyreactivity (PSR sort gate)” value is “high polyreactivity”.

With “QVQLVESGGGLVQAGGSLRLSCAASGGIFYPNAMGWYRQAPAKERELVAANTSGGSTSYADSVKGRFTISRDNAKDTVYLQMNSLKPEDTAVYYCAASTTAYAYVNYGSWGQGTQVTVSS”, the “polyreactivity (PSR sort gate)” value is “low polyreactivity”.

For the sequence “QVQLVESGGGLVQAGGSLRLSCAASGRTFRRYAMGWYRQAPGKERELVAAISRNGGSTYYADSVKGRFTISRDNAKNTVYLQMNSLKPEDTAVYYCNAVTYGSYYYWGQGTQVTVSS”, the “polyreactivity (PSR sort gate)” value was “high polyreactivity”.

With “QVQLVESGGGLVQAGGSLRLSCAASGFTFFANAMGWYRQAPGKERELVAAISISDATTYYADSVKGRFTISRDNAKNTVYLQMNSLKPEDTAVYDCAAEPEYIAGPLDYWGQGTQVTVSS”, the “polyreactivity (PSR sort gate)” value is listed as “high polyreactivity”.

With “QVHLVESAAGLVQAGGSLRLSCDPSGFTFYAYPMGWYSQAPGKEREFVAAISSRGGRTYYADSVKGRFTISRDNAKNTVYLQMNSLKPEDTAVYYCNVPYYSFRALSSYYWGQGTQVTVSS”, the “polyreactivity (PSR sort gate)” value is recorded as “high polyreactivity”.

Regarding “QVQLVESGGGLVQAGGSLRLSCAASGSTFVGTALGWYRQAPGKVRELVATISNSGGRTYYADSVKGRFTISRDNAKNTVYLQMNSLKPEDTAVYYCAADHPVFGPGYSFDYWGQGTQVTVSS”, the “polyreactivity (PSR sort gate)” value is reported as “low polyreactivity”.

Turning to “QVQLVESGGGLVQAGGSLRLSCAASGSIFRAYAMGWSRQAPGKERELVAAISIGGRTYYADSVKGRFTISRDNAKNTVYLQMNSLKPEDTAVYYCAAVRSYVKGGMYYWGQGTQVTVSS”, the “polyreactivity (PSR sort gate)” value was “low polyreactivity”.

In the case of “QVQLVESGGGLVQAGGSLRLSCAASGSIFSSNAMGWYRQAPGKERELVAAISRRGGSTYYADSVKGRFTISRDNAKNTVYLQMNSLKPEDTAVYYCNAYPWLLSTRYDYWGQGTQVTVSS”, the “polyreactivity (PSR sort gate)” value is recorded as “high polyreactivity”.

Take “QVQLVESGGGLVQAGGSLRLSCAASGSIFGRNAKGWYRQAPRKERELVAAINSGGSTNYADSVKGRFTISRDNAKNTVYLQMNSLKPEDTAVYYCAARTYSSGRYYGYVAFYYWGQGTQVTVSS”: the “polyreactivity (PSR sort gate)” value is recorded as “high polyreactivity”.

With “QVQHVESGGGLVQAGRSLRLSCAASGLIYPYVMGWYRQAPGKERELVAAISRSGGRTYYADSVKGRFTISRDNAKNTVYLQMNSLKPEDTAVYYCAAKVDVTGYFDYWGQGTQVTVSS”, the “polyreactivity (PSR sort gate)” value was “high polyreactivity”.
